For assay [1], the target named is cHSP27 C137S (human) (UniProt P04792). As to the kind of experiment: high-pressure NMR (1H-15N HSQC); 200 μM [U-15N]-C137S in baroresistant buffer (100 mM Tris-HCl, 100 mM phosphate) pH 7, 25 °C, 14.1 T, 1 to 2500 bar; three-state model (dimer, monomer, unfolded); similar pressure titrations on oxidised cHSP27.
Assay [2] has the same target. As to the kind of experiment: 15N CPMG relaxation dispersion NMR; cHSP27 (1 mM, reduced with 5 mM BME, 14.1 T only) or C137S (1 mM and 0.3 mM; 25, 30, 35 °C; 11.7 and 14.1 T) in NMR buffer pH 7; global two-state fit; dimer to monomers.
Assay [3] shares this target. As to the kind of experiment: NMR titration; intensities of the G116 monomer and dimer resonances against protein concentration, pH 7, 1 bar; dimer to monomers.
Assay [4] shares this target. Briefly: NMR (1H-15N HSQC, G116 monomer and dimer peak intensities) against pH; [U-15N]-C137S at 250 μM in NMR buffer at pH 7, 25 °C, and separate samples at pH 6.5, 6.0 and 5.0, 1 bar; similar pH titrations on oxidised cHSP27; the rows are for pH 5 / low pH; dimer to monomers.
The target of assay [5] is cHSP27(H124K/C137S) (human) (UniProt P04792). As to the kind of experiment: NMR titration; intensities of the G116 monomer and dimer resonances against protein concentration, pH 7, 1 bar; dimer to monomers.

This note sets out measurements from PMC6403371.

Broadly, the Kd is a measure of binding affinity in units of concentration. In turn, “cHSP27 C137S (from UniProt P04792 84-171) (domain or fragment)” gave a fold increase of Kd at 1600 bar (against 1 bar) with cHSP27 C137S (human) [1] of 10 fold. The dissociation constant Kd amounted to 0.5 µM with cHSP27 C137S (human) [2], 0.7 µM in the assay with cHSP27 C137S (human) [3] and 5000 µM with cHSP27 C137S (human) [4]. In the assay with cHSP27 C137S (human) [2], this substance came in with a population of the monomer at 1 mM of 1.5%.

As for “cHSP27(H124K/C137S) (from UniProt P04792 84-171) (domain or fragment)”, the Kd in assay [5] turned out to be 1100 µM.
